# B1: Hairpin Ribozyme (parent)
# chain: GUCCUCUUUCACGUGCGCGUGAAAGAGAGAAGUGAACCAGAGAAACACACGUUGUGGUAUAUUACCUGGUA
# Variants of: B1
# Assay: self-cleavage, relative activity (ratio to wild type); higher = more cleavage; co-transcriptional
row,Variant,self-cleavage
1,G42U A49U,0.24
2,A43C C65G,0.0609
3,A43C C65U,0.173
4,A43C C65A,0.102
5,A45G G51U,0.271
6,A41U U67C,0.456
7,A45G C48U,0.0892
8,A45G C48G,0.113
9,A45C G51A,0.0999
10,A44G G68C,0.244
11,A44G G68A,0.155
12,A44U U53C,0.0977
13,G42U A64U,0.186
14,G42U A64C,0.18
15,G42U A64G,0.154
16,A43C G57U,0.149
17,G42C U63A,0.18
18,G42U U52G,0.135
19,G42U U52A,0.379
20,G42U U52C,0.4
21,A41U A49U,0.725

row,Variant,self-cleavage
1,A44G C65A,0.0664
2,A44G C65U,0.0694
3,G42C C65U,0.215
4,G42C C65G,0.117
5,A44C G57A,0.135
6,A44C G57C,0.215
7,A44U G69C,0.159
8,A43U U60G,0.0802
9,A45C A59C,0.358
10,A45C A59U,0.151
11,G42A G51A,0.25
12,G42A G51U,0.207
13,G42A G51C,0.21
14,G42A G54U,0.136
15,G42A G54C,0.168
16,G42A G54A,0.153
17,A43G G51U,0.245
18,A44C U70A,0.109
19,A44C U70C,0.176
20,A43U A49G,0.151
21,A41U U70C,1.42

row,Variant,self-cleavage
1,A44G G69C,0.196
2,A44G G69U,0.0884
3,A43U U62C,0.107
4,A43U U62G,0.0478
5,A43U U62A,0.227
6,A44U G68A,0.116
7,A44U G68C,0.148
8,G42A U62G,0.154
9,G42A U53A,0.184
10,A44C G51C,0.289
11,A43G G54A,0.066
12,G42A G56U,0.13
13,G42A G56A,0.191
14,G42C A47C,0.149
15,G42U U55G,0.165
16,G42U U55C,0.155
17,A44G U58G,0.198
18,A43G U62A,0.125
19,A43G U62G,0.0971
20,A43G U62C,0.162
21,A44U C46G,0.0928

row,Variant,self-cleavage
1,G42C G57C,0.0624
2,G42C G57A,0.1
3,A44G U60A,0.171
4,A43U G57C,0.17
5,G42A G69U,0.219
6,A44C C50U,0.15
7,G42A U58G,0.17
8,G42A U58A,0.139
9,G42U C46G,0.156
10,G42C A43C,0.137
11,A43U C48G,0.166
12,A43U C48U,0.162
13,A45C U53C,0.0463
14,A45C U53A,0.123
15,A41G U60A,0.761
16,G42U G68U,0.14
17,G42A G57U,0.0918
18,A43U U63G,0.307
19,A44U G57U,0.206
20,A44U G57C,0.0924

# From the RNAGym collection of RNA variant scans (doi:10.7554/elife.80360)
